Results as given in patent US20180273587A1 (AILERON THERAPEUTICS, published 2018).
Positions of bridges follow the written chain, without caps; N, C: chain ends. Non-standard residues stand in square brackets, D forms with d. Gly(1-adamantyl) = N[C@H](C(=O)O)C12CC3CC(CC(C3)C1)C2; Phe(4-CF3) = N[C@@H](Cc1ccc(C(F)(F)F)cc1)C(=O)O; Phe(4-tBu) = CC(C)(C)c1ccc(C[C@H](N)C(=O)O)cc1; Bip = N[C@@H](Cc1ccc(-c2ccccc2)cc1)C(=O)O; Igl = N[C@H](C(=O)O)C1Cc2ccccc2C1; R8 = C=CCCCCCC[C@@](C)(N)C(=O)O; Cha = N[C@@H](CC1CCCCC1)C(=O)O; hAdm = homo-adamantyl glycine; S5 = C=CCCC[C@](C)(N)C(=O)O

Key:
Assay in all cases: Ki table, method not stated
[1] = target: BCL-2 (UniProt P10415 1-217, limits assumed)
[2] = target: BCL-XL (UniProt Q07817 1-209)
[3] = target: T1, MCL-1 (UniProt Q07820 172-327, limits assumed)
T1 construct: also called Myeloid cell leukemia 1
T1 sequence (Q07820 172-327 limits assumed): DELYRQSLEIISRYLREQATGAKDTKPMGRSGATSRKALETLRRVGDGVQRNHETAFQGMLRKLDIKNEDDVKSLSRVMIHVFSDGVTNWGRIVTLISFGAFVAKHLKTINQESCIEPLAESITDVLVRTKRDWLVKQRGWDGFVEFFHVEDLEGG

BCL-XL, sequence (Q07817 1-209): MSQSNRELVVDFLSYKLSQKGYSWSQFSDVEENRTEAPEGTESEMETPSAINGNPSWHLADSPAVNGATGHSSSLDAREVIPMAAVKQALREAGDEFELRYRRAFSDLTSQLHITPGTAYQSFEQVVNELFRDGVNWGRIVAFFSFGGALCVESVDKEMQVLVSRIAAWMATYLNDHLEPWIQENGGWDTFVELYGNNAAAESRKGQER
BCL-2, sequence (P10415 1-217 limits assumed): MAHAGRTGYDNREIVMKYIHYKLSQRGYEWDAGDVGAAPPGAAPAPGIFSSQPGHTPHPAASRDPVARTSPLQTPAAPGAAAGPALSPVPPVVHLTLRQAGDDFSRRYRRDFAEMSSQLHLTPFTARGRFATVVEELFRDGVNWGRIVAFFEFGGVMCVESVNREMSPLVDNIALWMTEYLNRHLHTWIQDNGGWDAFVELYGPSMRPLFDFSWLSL

Binder	Ki [1] [nM]	Ki [2] [nM]	Ki [3] [nM]
IWIAQALRAIGDEFNAYYARR (not fully specified; Ac- at N-terminus; -NH2 at C-terminus; $r8 at 9 and $ at 16 joined by all-carbon crosslinker) [SEQ ID NO: 1628]	12.9	3.9	10.6
IWIAQALRAIGDAFNAYYA (not fully specified; Ac- at N-terminus; -NH2 at C-terminus; $r8 at 9 and $ at 16 joined by all-carbon crosslinker) [SEQ ID NO: 1633]	84.8	22.4	8.4
Ac-I[S5]IAQ[S5]LR[R8]IGDEFN[S5]YYA-NH2 (staple 9-16, 2-6; SMILES CC[C@H](C)[C@H](NC(C)=O)C(=O)N[C@@]1(C)CCCC=CCCC[C@@](C)(C(=O)N[C@@H](CC(C)C)C(=O)N[C@@H](CCCNC(=N)N)C(=O)N[C@]2(C)CCCCCCC=CCCC[C@@](C)(C(=O)N[C@@H](Cc3ccc(O)cc3)C(=O)N[C@@H](Cc3ccc(O)cc3)C(=O)N[C@@H](C)C(N)=O)NC(=O)[C@H](CC(N)=O)NC(=O)[C@H](Cc3ccccc3)NC(=O)[C@H](CCC(=O)O)NC(=O)[C@H](CC(=O)O)NC(=O)CNC(=O)[C@H]([C@@H](C)CC)NC2=O)NC(=O)[C@H](CCC(N)=O)NC(=O)[C@H](C)NC(=O)[C@H]([C@@H](C)CC)NC1=O, also called Ac-I$IAQ$LR$r8IGDEFN$YYA-NH2) [SEQ ID NO: 1641]	8.7	11.6	19.5
Ac-IWIAQALR[R8]IGDEFA[S5]YYA-NH2 (staple 9-16; SMILES CC[C@H](C)[C@H](NC(C)=O)C(=O)N[C@@H](Cc1c[nH]c2ccccc12)C(=O)N[C@H](C(=O)N[C@@H](C)C(=O)N[C@@H](CCC(N)=O)C(=O)N[C@@H](C)C(=O)N[C@@H](CC(C)C)C(=O)N[C@@H](CCCNC(=N)N)C(=O)N[C@]1(C)CCCCCCC=CCCC[C@@](C)(C(=O)N[C@@H](Cc2ccc(O)cc2)C(=O)N[C@@H](Cc2ccc(O)cc2)C(=O)N[C@@H](C)C(N)=O)NC(=O)[C@H](C)NC(=O)[C@H](Cc2ccccc2)NC(=O)[C@H](CCC(=O)O)NC(=O)[C@H](CC(=O)O)NC(=O)CNC(=O)[C@H]([C@@H](C)CC)NC1=O)[C@@H](C)CC) [SEQ ID NO: 1643]	21.9	15.4	7
Ac-IAIAQALR[R8]IGDAFN[S5]YYA-NH2 (staple 9-16; SMILES CC[C@H](C)[C@H](NC(C)=O)C(=O)N[C@@H](C)C(=O)N[C@H](C(=O)N[C@@H](C)C(=O)N[C@@H](CCC(N)=O)C(=O)N[C@@H](C)C(=O)N[C@@H](CC(C)C)C(=O)N[C@@H](CCCNC(=N)N)C(=O)N[C@]1(C)CCCCCCC=CCCC[C@@](C)(C(=O)N[C@@H](Cc2ccc(O)cc2)C(=O)N[C@@H](Cc2ccc(O)cc2)C(=O)N[C@@H](C)C(N)=O)NC(=O)[C@H](CC(N)=O)NC(=O)[C@H](Cc2ccccc2)NC(=O)[C@H](C)NC(=O)[C@H](CC(=O)O)NC(=O)CNC(=O)[C@H]([C@@H](C)CC)NC1=O)[C@@H](C)CC) [SEQ ID NO: 1648]	37.7	22.3	19.7
Ac-IWIAQALR[R8]IGDEFN[S5]YYA-NH2 (staple 9-16; SMILES CC[C@H](C)[C@H](NC(C)=O)C(=O)N[C@@H](Cc1c[nH]c2ccccc12)C(=O)N[C@H](C(=O)N[C@@H](C)C(=O)N[C@@H](CCC(N)=O)C(=O)N[C@@H](C)C(=O)N[C@@H](CC(C)C)C(=O)N[C@@H](CCCNC(=N)N)C(=O)N[C@]1(C)CCCCCCC=CCCC[C@@](C)(C(=O)N[C@@H](Cc2ccc(O)cc2)C(=O)N[C@@H](Cc2ccc(O)cc2)C(=O)N[C@@H](C)C(N)=O)NC(=O)[C@H](CC(N)=O)NC(=O)[C@H](Cc2ccccc2)NC(=O)[C@H](CCC(=O)O)NC(=O)[C@H](CC(=O)O)NC(=O)CNC(=O)[C@H]([C@@H](C)CC)NC1=O)[C@@H](C)CC) [SEQ ID NO: 1649]	3.2	1.4	1.8
Ac-IWIAQALR[R8]IGDQFN[S5]YYA-NH2 (staple 9-16; SMILES CC[C@H](C)[C@H](NC(C)=O)C(=O)N[C@@H](Cc1c[nH]c2ccccc12)C(=O)N[C@H](C(=O)N[C@@H](C)C(=O)N[C@@H](CCC(N)=O)C(=O)N[C@@H](C)C(=O)N[C@@H](CC(C)C)C(=O)N[C@@H](CCCNC(=N)N)C(=O)N[C@]1(C)CCCCCCC=CCCC[C@@](C)(C(=O)N[C@@H](Cc2ccc(O)cc2)C(=O)N[C@@H](Cc2ccc(O)cc2)C(=O)N[C@@H](C)C(N)=O)NC(=O)[C@H](CC(N)=O)NC(=O)[C@H](Cc2ccccc2)NC(=O)[C@H](CCC(N)=O)NC(=O)[C@H](CC(=O)O)NC(=O)CNC(=O)[C@H]([C@@H](C)CC)NC1=O)[C@@H](C)CC) [SEQ ID NO: 1650]	67	12	5.2
Ac-IW[Phe(4-tBu)]AQALR[R8]IGDAFN[S5]YYA-NH2 (staple 9-16; SMILES CC[C@H](C)[C@H](NC(C)=O)C(=O)N[C@@H](Cc1c[nH]c2ccccc12)C(=O)N[C@@H](Cc1ccc(C(C)(C)C)cc1)C(=O)N[C@@H](C)C(=O)N[C@@H](CCC(N)=O)C(=O)N[C@@H](C)C(=O)N[C@@H](CC(C)C)C(=O)N[C@@H](CCCNC(=N)N)C(=O)N[C@]1(C)CCCCCCC=CCCC[C@@](C)(C(=O)N[C@@H](Cc2ccc(O)cc2)C(=O)N[C@@H](Cc2ccc(O)cc2)C(=O)N[C@@H](C)C(N)=O)NC(=O)[C@H](CC(N)=O)NC(=O)[C@H](Cc2ccccc2)NC(=O)[C@H](C)NC(=O)[C@H](CC(=O)O)NC(=O)CNC(=O)[C@H]([C@@H](C)CC)NC1=O, also called Ac-IWF4tBuAQALR$r8IGDAFN$YYA-NH2) [SEQ ID NO: 1684]		16.9	151
Ac-IWIAQA[Cha]R[R8]IGDAFN[S5]YYA-NH2 (staple 9-16; SMILES CC[C@H](C)[C@H](NC(C)=O)C(=O)N[C@@H](Cc1c[nH]c2ccccc12)C(=O)N[C@H](C(=O)N[C@@H](C)C(=O)N[C@@H](CCC(N)=O)C(=O)N[C@@H](C)C(=O)N[C@@H](CC1CCCCC1)C(=O)N[C@@H](CCCNC(=N)N)C(=O)N[C@]1(C)CCCCCCC=CCCC[C@@](C)(C(=O)N[C@@H](Cc2ccc(O)cc2)C(=O)N[C@@H](Cc2ccc(O)cc2)C(=O)N[C@@H](C)C(N)=O)NC(=O)[C@H](CC(N)=O)NC(=O)[C@H](Cc2ccccc2)NC(=O)[C@H](C)NC(=O)[C@H](CC(=O)O)NC(=O)CNC(=O)[C@H]([C@@H](C)CC)NC1=O)[C@@H](C)CC, also called Ac-IWIAQAChaR$r8IGDAFN$YYA-NH2) [SEQ ID NO: 1687]		81.1	4.2
Ac-IWIAQA[Gly(1-adamantyl)]R[R8]IGDAFN[S5]YYA-NH2 (staple 9-16; SMILES CC[C@H](C)[C@H](NC(C)=O)C(=O)N[C@@H](Cc1c[nH]c2ccccc12)C(=O)N[C@H](C(=O)N[C@@H](C)C(=O)N[C@@H](CCC(N)=O)C(=O)N[C@@H](C)C(=O)N[C@H](C(=O)N[C@@H](CCCNC(=N)N)C(=O)N[C@]1(C)CCCCCCC=CCCC[C@@](C)(C(=O)N[C@@H](Cc2ccc(O)cc2)C(=O)N[C@@H](Cc2ccc(O)cc2)C(=O)N[C@@H](C)C(N)=O)NC(=O)[C@H](CC(N)=O)NC(=O)[C@H](Cc2ccccc2)NC(=O)[C@H](C)NC(=O)[C@H](CC(=O)O)NC(=O)CNC(=O)[C@H]([C@@H](C)CC)NC1=O)C12CC3CC(CC(C3)C1)C2)[C@@H](C)CC, also called Ac-IWIAQAAdmR$r8IGDAFN$YYA-NH2) [SEQ ID NO: 1689]		110	40.2
Ac-IWIAQA[hAdm]R[R8]IGDAFN[S5]YYA-NH2 (staple 9-16, also called Ac-IWIAQAhAdmR$r8IGDAFN$YYA-NH2) [SEQ ID NO: 1691]	240		16.6
Ac-IWIAQA[Igl]R[R8]IGDAFN[S5]YYA-NH2 (staple 9-16; SMILES CC[C@H](C)[C@H](NC(C)=O)C(=O)N[C@@H](Cc1c[nH]c2ccccc12)C(=O)N[C@H](C(=O)N[C@@H](C)C(=O)N[C@@H](CCC(N)=O)C(=O)N[C@@H](C)C(=O)N[C@H](C(=O)N[C@@H](CCCNC(=N)N)C(=O)N[C@]1(C)CCCCCCC=CCCC[C@@](C)(C(=O)N[C@@H](Cc2ccc(O)cc2)C(=O)N[C@@H](Cc2ccc(O)cc2)C(=O)N[C@@H](C)C(N)=O)NC(=O)[C@H](CC(N)=O)NC(=O)[C@H](Cc2ccccc2)NC(=O)[C@H](C)NC(=O)[C@H](CC(=O)O)NC(=O)CNC(=O)[C@H]([C@@H](C)CC)NC1=O)C1Cc2ccccc2C1)[C@@H](C)CC, also called Ac-IWIAQAIglR$r8IGDAFN$YYA-NH2) [SEQ ID NO: 1693]		147	47.7
Ac-IWIAQA[Phe(4-CF3)]R[R8]IGDAFN[S5]YYA-NH2 (staple 9-16; SMILES CC[C@H](C)[C@H](NC(C)=O)C(=O)N[C@@H](Cc1c[nH]c2ccccc12)C(=O)N[C@H](C(=O)N[C@@H](C)C(=O)N[C@@H](CCC(N)=O)C(=O)N[C@@H](C)C(=O)N[C@@H](Cc1ccc(C(F)(F)F)cc1)C(=O)N[C@@H](CCCNC(=N)N)C(=O)N[C@]1(C)CCCCCCC=CCCC[C@@](C)(C(=O)N[C@@H](Cc2ccc(O)cc2)C(=O)N[C@@H](Cc2ccc(O)cc2)C(=O)N[C@@H](C)C(N)=O)NC(=O)[C@H](CC(N)=O)NC(=O)[C@H](Cc2ccccc2)NC(=O)[C@H](C)NC(=O)[C@H](CC(=O)O)NC(=O)CNC(=O)[C@H]([C@@H](C)CC)NC1=O)[C@@H](C)CC, also called Ac-IWIAQAF4CF3R$r8IGDAFN$YYA-NH2) [SEQ ID NO: 1694]		10.8	188
Ac-IW[Bip]AQALR[R8]IGDAFN[S5]YYA-NH2 (staple 9-16; SMILES CC[C@H](C)[C@H](NC(C)=O)C(=O)N[C@@H](Cc1c[nH]c2ccccc12)C(=O)N[C@@H](Cc1ccc(-c2ccccc2)cc1)C(=O)N[C@@H](C)C(=O)N[C@@H](CCC(N)=O)C(=O)N[C@@H](C)C(=O)N[C@@H](CC(C)C)C(=O)N[C@@H](CCCNC(=N)N)C(=O)N[C@]1(C)CCCCCCC=CCCC[C@@](C)(C(=O)N[C@@H](Cc2ccc(O)cc2)C(=O)N[C@@H](Cc2ccc(O)cc2)C(=O)N[C@@H](C)C(N)=O)NC(=O)[C@H](CC(N)=O)NC(=O)[C@H](Cc2ccccc2)NC(=O)[C@H](C)NC(=O)[C@H](CC(=O)O)NC(=O)CNC(=O)[C@H]([C@@H](C)CC)NC1=O, also called Ac-IWBipAQALR$r8IGDAFN$YYA-NH2) [SEQ ID NO: 1686]		3	11
